This passage reports Kd results from paper PMC6547453 (2019).

One test has as its target T1, EsCas13d ([Eubacterium] siraeum DSM 15702).
T1 chain: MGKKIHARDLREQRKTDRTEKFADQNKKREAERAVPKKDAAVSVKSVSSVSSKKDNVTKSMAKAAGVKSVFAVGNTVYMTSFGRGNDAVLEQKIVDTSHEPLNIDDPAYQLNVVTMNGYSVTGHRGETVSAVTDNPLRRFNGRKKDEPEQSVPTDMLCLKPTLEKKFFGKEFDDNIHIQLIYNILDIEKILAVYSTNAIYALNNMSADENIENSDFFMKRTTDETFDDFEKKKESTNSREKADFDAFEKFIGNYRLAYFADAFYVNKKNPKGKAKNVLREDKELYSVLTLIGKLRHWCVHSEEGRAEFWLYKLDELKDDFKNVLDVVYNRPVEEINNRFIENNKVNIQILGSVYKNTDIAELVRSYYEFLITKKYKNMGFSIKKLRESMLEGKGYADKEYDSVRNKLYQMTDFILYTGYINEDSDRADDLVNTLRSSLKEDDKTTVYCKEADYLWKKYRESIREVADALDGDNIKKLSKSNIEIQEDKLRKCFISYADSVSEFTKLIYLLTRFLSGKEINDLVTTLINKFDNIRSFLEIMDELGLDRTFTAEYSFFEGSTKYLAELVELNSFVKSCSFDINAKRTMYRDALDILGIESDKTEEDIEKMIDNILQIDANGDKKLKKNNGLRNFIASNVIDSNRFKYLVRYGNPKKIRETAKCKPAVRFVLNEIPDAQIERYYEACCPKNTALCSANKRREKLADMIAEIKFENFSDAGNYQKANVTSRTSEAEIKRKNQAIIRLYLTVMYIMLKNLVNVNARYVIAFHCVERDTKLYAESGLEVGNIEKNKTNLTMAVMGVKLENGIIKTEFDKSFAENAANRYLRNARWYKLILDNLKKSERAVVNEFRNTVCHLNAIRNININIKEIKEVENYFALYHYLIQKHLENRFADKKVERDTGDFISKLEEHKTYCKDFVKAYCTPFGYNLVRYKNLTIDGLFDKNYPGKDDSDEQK
The test is described as follows: ITC. For orientation: In ITC the heat of successive injections is recorded.

The next test has as its target RspCas13d (Ruminococcus sp. (from the prefix Rsp, …)). The test is described as follows: ITC.

B1: full-length RspWYL1 (Ruminococcus sp. WYL1, amino acids 1–392) (natural protein)
chain: MLIPPSTFLPKRDKNVPYIAEVQSIPLSPSAYSVIIKDKSIFETSLSPNGSVSMSSFLTSIFDSAYIASLKYKSDDNYKYIGIPLLNAFVEWQIEEIDDSLDDKSKEIIKSYLISKLSAKYEKTKTENAVRVRLSICRDLYDTLSSDDLYYENKVYSLTLRRFLKAVYEDYALLSDCERERLIFADNIIKINEVIKQNGSRYYSFIYAYSNMYSREKRRIRLIPYRIVSDEYKMYNYLVCLSDEKSAGKEFKADSYRISRLSGLSIAEKLSQKEYSSVTEYERLKEGHVKSVKHLLSDPRFGSDESDISKVYLTEKGVEMFRKILYQRPILKGNEKPKPNTVNEFISPPIQVKYYFNKFGKDGVILSPSDSFEEMRTLYVEGADAYNREVEM
modifications: apo (no crRNA); full length assumed, since limits are not given; 954 aa matches the known EsCas13d length
As to B1, the Kd in the test with EsCas13d was about 270 µM.

B2: full-length RspWYL1 (Ruminococcus sp. WYL1, amino acids 1–392) (natural protein)
chain: B1 chain
Molecule B2 yielded a dissociation constant (Kd) in the test with RspCas13d of about 250 µM.

In general, Kd refers to the constant that tells how readily two partners part at equilibrium. Higher therefore signals a looser complex.
